One block for each molecule: values may come before it.
What was measured:
[1] = biological target: Mis12C/KNL1^2026-2342 complex (human) (UniProt Q9H081); assay: BLI
[2] = biological target: Mis12 complex (full length; MIS12, PMF1, NSL1, DSN1) (human) (UniProt Q9H081); assay: ITC
[3] = biological target: Mis12 complex (full length; MIS12, PMF1, NSL1, DSN1) (human) (UniProt Q9H081); assay: BLI
[4] = biological target: Ndc80 complex (NDC80/HEC1, NUF2, SPC24, SPC25) (human, UniProt O14777 1-642; Q9BZD4 1-464; Q8NBT2 1-197; Q9HBM1 1-224); assay: BLI
Sequence of Ndc80 complex (NDC80/HEC1, NUF2, SPC24, SPC25) (O14777 whole entry, chain 1 of 2): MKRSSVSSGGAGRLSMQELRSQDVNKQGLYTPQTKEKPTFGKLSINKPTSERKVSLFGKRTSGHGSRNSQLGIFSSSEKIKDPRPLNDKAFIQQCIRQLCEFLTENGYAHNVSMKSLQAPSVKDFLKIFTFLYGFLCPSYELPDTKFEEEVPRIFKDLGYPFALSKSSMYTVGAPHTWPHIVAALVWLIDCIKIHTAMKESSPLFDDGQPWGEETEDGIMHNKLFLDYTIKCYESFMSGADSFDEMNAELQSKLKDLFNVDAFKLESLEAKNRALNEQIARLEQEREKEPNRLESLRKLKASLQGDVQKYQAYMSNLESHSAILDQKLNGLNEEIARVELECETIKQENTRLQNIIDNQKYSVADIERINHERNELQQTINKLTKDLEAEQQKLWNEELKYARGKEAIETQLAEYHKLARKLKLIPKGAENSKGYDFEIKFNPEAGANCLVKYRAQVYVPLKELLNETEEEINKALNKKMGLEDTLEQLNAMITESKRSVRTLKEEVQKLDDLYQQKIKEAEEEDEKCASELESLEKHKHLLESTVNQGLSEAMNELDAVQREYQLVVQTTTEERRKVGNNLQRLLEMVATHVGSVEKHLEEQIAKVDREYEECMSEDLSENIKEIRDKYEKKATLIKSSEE
Sequence of Ndc80 complex (NDC80/HEC1, NUF2, SPC24, SPC25) (Q9BZD4 whole entry, chain 2 of 2): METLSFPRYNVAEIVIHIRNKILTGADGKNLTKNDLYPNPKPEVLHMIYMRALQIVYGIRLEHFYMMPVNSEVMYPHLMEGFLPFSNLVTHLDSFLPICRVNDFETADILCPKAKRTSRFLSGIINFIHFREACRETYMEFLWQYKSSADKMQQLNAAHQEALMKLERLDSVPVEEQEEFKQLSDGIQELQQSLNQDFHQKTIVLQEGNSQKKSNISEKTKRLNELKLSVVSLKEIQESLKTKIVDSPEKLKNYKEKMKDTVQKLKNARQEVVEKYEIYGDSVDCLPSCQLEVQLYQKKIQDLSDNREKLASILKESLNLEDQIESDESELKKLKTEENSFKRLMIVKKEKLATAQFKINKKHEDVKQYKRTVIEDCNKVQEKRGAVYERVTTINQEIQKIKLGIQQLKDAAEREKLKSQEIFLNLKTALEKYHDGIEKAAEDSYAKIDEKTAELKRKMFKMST

[5] = biological target: Mis12 complex mutant Mis12C^M3 (human) (UniProt Q9H081); assay: ITC
[6] = biological target: Mis12 complex mutant Mis12C^M4 (human) (UniProt Q9H081); assay: ITC
[7] = biological target: T1, NSL1 (subunit of the Mis12 complex in the KMN cryo-EM sample) (human, UniProt Q96IY1 1-281); assay: cryo-EM structure
T1 sequence (looked up): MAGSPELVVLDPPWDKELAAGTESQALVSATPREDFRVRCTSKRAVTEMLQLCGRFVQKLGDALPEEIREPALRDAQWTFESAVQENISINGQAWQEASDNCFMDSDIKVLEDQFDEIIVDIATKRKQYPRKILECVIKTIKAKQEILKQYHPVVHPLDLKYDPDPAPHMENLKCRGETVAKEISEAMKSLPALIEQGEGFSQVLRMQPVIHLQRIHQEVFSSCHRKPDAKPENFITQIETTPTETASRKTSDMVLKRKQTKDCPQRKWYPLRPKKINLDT

[8] = biological target: T2, DSN1 (subunit of the Mis12 complex in the KMN cryo-EM sample) (human, UniProt Q9H410 1-356); assay: cryo-EM structure
T2 sequence (looked up): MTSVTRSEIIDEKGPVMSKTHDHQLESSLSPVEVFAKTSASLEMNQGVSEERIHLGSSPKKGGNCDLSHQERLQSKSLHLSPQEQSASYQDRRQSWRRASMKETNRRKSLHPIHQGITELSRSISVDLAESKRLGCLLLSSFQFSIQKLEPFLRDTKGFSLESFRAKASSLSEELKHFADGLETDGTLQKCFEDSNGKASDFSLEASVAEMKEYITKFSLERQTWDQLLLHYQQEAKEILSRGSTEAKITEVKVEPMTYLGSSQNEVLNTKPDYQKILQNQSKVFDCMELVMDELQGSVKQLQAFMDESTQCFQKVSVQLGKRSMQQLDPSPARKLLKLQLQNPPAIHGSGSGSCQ

[9] = biological target: T3, SPC25 residues 92-224 (human, UniProt Q9HBM1 92-224); assay: cryo-EM structure
T3 sequence (looked up): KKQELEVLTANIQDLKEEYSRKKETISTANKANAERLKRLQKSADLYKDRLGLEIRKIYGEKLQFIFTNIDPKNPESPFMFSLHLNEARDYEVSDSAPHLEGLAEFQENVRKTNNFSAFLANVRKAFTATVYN

Molecule: Ndc80 complex (NDC80/HEC1, NUF2, SPC24, SPC25) (from UniProt O14777 1-642; Q9BZD4 1-464; Q8NBT2 1-197; Q9HBM1 1-224)
Kd [1]: 1 nM
koff [1]: 0.0001 s⁻¹

Molecule: KNL1 residues 2026-2342 (domain or fragment)
Kd [2]: 1.6 nM
Kd [3]: 2 nM

B1: Mis12 complex (full length; MIS12, PMF1, NSL1, DSN1) (complex, human)
chain 1: MSVDPMTYEAQFFGFTPQTCMLRIYIAFQDYLFEVMQAVEQVILKKLDGIPDCDISPVQIRKCTEKFLCFMKGHFDNLFSKMEQLFLQLILRIPSNILLPEDKCKETPYSEEDFQHLQKEIEQLQEKYKTELCTKQALLAELEEQKIVQAKLKQTLTFFDELHNVGRDHGTSDFRESLVSLVQNSRKLQNIRDNVEKESKRLKIS
chain 2: MAEASSANLGSGCEEKRHEGSSSESVPPGTTISRVKLLDTMVDTFLQKLVAAGSYQRFTDCYKCFYQLQPAMTQQIYDKFIAQLQTSIREEISDIKEEGNLEAVLNALDKIVEEGKVRKEPAWRPSGIPEKDLHSVMAPYFLQQRDTLRRHVQKQEAENQQLADAVLAGRRQVEELQLQVQAQQQAWQALHREQRELVAVLREPE
chain 3: T1 sequence (looked up)
chain 4: T2 sequence (looked up)
Kd [4]: ~6 nM
koff [4]: ~0.0001 s⁻¹

Continued, values first:

fold reduction of the binding affinity against wild-type Mis12C [5]: 20 fold
fold reduction of the binding affinity against wild-type Mis12C [6]: 10 fold
binding result [7]: binds
binding result [8]: binds
B2: SPC24^109-197/SPC25^92-224 dimer (complex, human)
chain 1: EELKEIEADLERQEKEVDEDTTVTIPSAVYVAQLYHQVSKIEWDYECEPGMVKGIHHGPSVAQPIHLDSTQLSRKFISDYLWSLVDTEW
chain 2: T3 sequence (looked up)

binding result [9]: binds
B3: SPC24 residues 109-197 (domain or fragment, human, UniProt Q8NBT2 109-197, looked up)
chain: B2 chain 1

— doi:10.1101/2023.08.07.552315 (bioRxiv, 2023)
